{"source": "patent US11702469B2", "about": "“Recombinant EGFL7, EGFL7 antibodies, and uses thereof” (Ohio State Innovation Foundation, priority 2017, dated 2023)", "key": {"[1]": {"test_system": "AML cell lines", "test": "Differentiation (CD11b expression) in AML cell lines", "type": "cell-based, human", "details": "vs IgG-treated controls", "description": "FIG. 10. Induced differentiation in AML cell lines treated with anti-EGFL7. Differentiation analysis was evaluated by CD11b expression. CD11b is depicted as the ratio of the CD11b expression value in the @E7 treated samples to CD11b expression value of the IgG-treated controls. * indicates P<0.05, ** indicates P<0.01.\nFor the evaluation of apoptosis, cells were stained with Annexin V and 7-AAD as previously described^16, 21 For the evaluation of cell proliferation, AML cell lines were incubated with BrdU, fixed, permeabilized and stained with APC-conjugated anti-BrdU antibody, according to the instructions of the manufacturer (BD Biosciences) and as previously described^16, 21 The proliferating fraction of the cells (i.e., the BrdU positive cells) was evaluated with flow cytometry (LSRII, BD Biosciences). For cell differentiation analysis, cells were stained with an anti-CD11B antibody (BD Biosciences) and analyzed by flow cytometry."}, "[2]": {"test_system": "wild type (C57Bl/6J) mice", "test": "Toxicity on normal hematopoiesis in wild type mice", "type": "in vivo", "details": "50 mpk twice a week for two weeks", "description": "(§1) FIG. 20A-20B. WT mice were treated with 50 mpk twice weekly of Parsatuzumab (@EGFL7) or IgG1 control. FIG. 20A. CBCs from mice harvested after treatment. FIG. 20B. Percent engraftment of treated BM (CD45.2+) transplanted into BoyJ recipient mice (CD45.1).\n(§2) To assess the toxicity of Parsatuzumab on normal hematopoiesis, wild type (C57Bl/6J) mice were treated with Parsatuzumab (n=4) and IgG1 control (n=4) with the highest dose previously tested at 50 mpk twice a week for two weeks. Parsatuzumab targets both human and mouse EGFL7 protein. After two weeks of treatment, blood, spleen and BM were harvested and full phenotypic characterization was performed to assess toxicity. […] Full immunophenotypic examination of BM populations was also performed (data not shown due to space constraints). […] To functionally test the effect of Parsatuzumab on normal HSPCs, competitive repopulation BM transplantation (BMT) assays and CFU assays were performed. For competitive BMT, 2×10^6 WBM was harvested from Parsatuzumab and IgG1 treated mice (CD45.2) with 2×10^6 BoyJ (CD45.1) WBM and transplanted into lethally irradiated BoyJ recipients."}, "[3]": {"test_system": "BoyJ recipient mice", "test": "Competitive repopulation BM transplantation of treated BM", "type": "in vivo", "details": "three weeks post-BMT, BM of treated mice vs IgG1 control", "description": "as §1, §2"}, "[4]": {"test_system": "HEY1 mRNA", "test": "HEY1 mRNA qRT-PCR in primary AML blasts", "type": "cell-based, human", "details": "100 μg/ml, 2 and 10 h, vs IgG", "description": "FIG. 26. Blocking EGFL7 increases the NOTCH downstream target, HEY1, in human AML patient blasts (A) Primary blasts from AML patients were cultured in SFEM medium with 10% FBS in the absence or presence of 100 μg/ml of IgG or anti-human EGFL7 antibody for 2 and 10 h. Total RNAs were extracted for qRT-PCR analysis of HEY1 mRNA with β-ACTIN as internal control. *p<0.05, ***p<0.001 vs IgG; ns=not significant.\n(§3) Total RNA was extracted using Trizol reagent (Invitrogen, Carlsbad, Calif., USA). cDNA was synthesized using SuperScript III reagents (Invitrogen) according to the manufacturer's instruction. Quantitative Real-Time RT-PCR was performed using commercially available TaqMan Gene Expression Assay primers and the 7900HT Fast Real-Time PCR System (Applied Biosystems, Foster City, Calif., USA). The expression levels of target genes were normalized to β-ACTIN. Relative expression was calculated by using the comparative 2^−ΔΔct method."}, "[5]": {"test_system": "HES1", "test": "DLL4-Fc coated plate NOTCH activation (HES1 qRT-PCR), THP-1", "type": "cell-based, human", "details": "pre-treated 30 min: 10 μM AVA, 100 μg/ml anti-EGFL7 or 0.25 μM rEGFL7; then 4 h; vs DLL4-FC", "description": "FIG. 24A-24G. EGFL7 prevents activation of NOTCH signaling in AML cells. (FIG. 24A) Overview of experiments using DLL4-FC and IgG-FC control coated plates to induce NOTCH activation. (FIG. 24B) THP-1 cells were pre-treated with 10 μM γ-secretase inhibitor (AVA), 100 μg/ml anti-EGFL7 antibody or 0.25 μM rEGFL7 for 30 min, then transferred to IgG-Fc or DLL4-Fc coated plates. After 4 h of incubation total RNA from THP-1 cells was extracted for qRT-PCR analysis of HES1 with β-ACTIN as internal control. ^###P<0.001 DLL4-FC vs IgG-FC; ***P<0.001 DLL4+AVA, DLL4+rEGFL7, and DLL4+anti-EGFL7 vs DLL4-FC. (FIG. 24C) Primary AML blasts were pretreated with 10 μM γ-secretase inhibitor (AVA), 100 μg/ml anti-EGFL7 antibody or 0.25 μM rEGFL7 for 30 min, then transferred to IgG-Fc or DLL4-Fc coated plates. After 4 h of incubation, total RNA was extracted for RT-PCR analysis of HES1 mRNA with β-ACTIN as internal control. ^###P<0.001 DLL4-Fc vs IgG-Fc; *P<0.05, ***P<0.001 vs DLL4 Fc. THP-1 cells were treated with the indicated concentration of anti-EGFL7 (@E7) then assessed for apoptosis using (FIG. 24D) AnnexinV+ staining and FACS; *P<0.05 (FIG. 24E) Immuno-blotting for PARP1 and Casp3 cleavage. (FIG. 24F) Cell differentiation was assessed by CD11B and CD14 staining 96-hours post anti-EGFL7 treatments; *P<0.05. (FIG. 24G) To determine whether activation of NOTCH by DLL4-Fc could be accentuated by anti-EGFL7 treatment, THP-1 cells were first treated with anti-EGFL7 (100 μg/ml) and then cultured on DLL4-FC or IgG-Fc coated plates and then assessed for apoptosis using AnnexinV+ staining and FACS. *P<0.05 DLL4-Fc and anti-EGFL7; vs DLL4-FC+anti-EGFL7.\nas §3, with “The expression levels of target genes were normalized to β-ACTIN. Relative expression was calculated by using the comparative 2^−ΔΔct method.” left out"}, "[6]": {"test_system": "EOL-1 cells", "test": "EOL-1 AML xenograft in NSG mice", "details": "for overall survival: 50 mg/kg intraperitoneal, three times per week, 4 mice per group, vs IgG1 control", "quoted_text": "(FIG. 25A) Overall survival of transplanted NSG mice which were treated with Parsatuzumab or IgG1 control (4 mice per group; dosage 50 mg/kg intraperitoneal injected). […] (FIG. 25B) HES-1 levels were measured after in vivo treatment with Parsatuzumab and IgG1 control, GAPDH was used as loading control.\nAll studies using animals were carried out in accordance with the OSU institutional guidelines for animal care and under protocols approved by the OSU Institutional Animal Care and Use Committee. All mice used in the experiments were between 8 and 10 weeks of age. Female NOD-scid IL2Rg^null (NSG) mice were transplanted with 10×10^6 EOL-1 cells. Two weeks post-transplant mice were treated with Parsatuzumab or IgG1 control (4 mice per group; dosage 50 mg/kg intraperitoneal), three times per week. Mice were monitored closely for clinical signs of leukemia such as weight loss and hind limb paralysis.\nTwo-tailed student's t tests were performed using GraphPad Prism version 7 (Graphpad Software, San Diego, Calif.) to analyze in vitro and in vivo experiments unless otherwise noted. P values <0.05 were considered significant. Overall survival for the mouse AML xeonograft model was calculated using the Kaplan-Meier method, and survival curves were compared by the log-rank test.\nBriefly, 10×10^6 EOL-1 cells were transplanted into non-conditioned NSG recipient mice. Two weeks post-transplantation, mice were treated with 50 mpk of anti-EGFL7 or IgG1 control antibody three times per week (FIG. 25A)."}}, "note": "“Also recorded” adds a separate entry of the source.", "data": [{"molecule": "Parsatuzumab: Anti-human EGFL7 therapeutic antibody (Parsatuzumab) obtained from Creative Biolabs; blocking monoclonal antibody (antibody, chains of the INN, looked up, V domains shown) VH: EVQLVESGGGLVQPGGSLRLSCAASGYTFIDYYMNWVRQAPGKGLEWVGDINLDNSGTHYNQKFKGRFTISRDKSKNTAYLQMNSLRAEDTAVYYCAREGVYHDYDDYAMDYWGQGTLVTVSS VL: DIQMTQSPSSLSASVGDRVTITCRTSQSLVHINAITYLHWYQQKPGKAPKLLIYRVSNRFSGVPSRFSGSGSGTDFTLTISSLQPEDFATYYCGQSTHVPLTFGQGTKVEIK", "values": [{"measurement": "differentiation (CD11b expression)", "setting": "[1]", "result": "increased differentiation"}, {"measurement": "number of CFUs and types of colonies from treated BM", "setting": "[2]; vs IgG1", "result": "no significant changes in the number of CFUs or types of colonies formed"}, {"measurement": "full differential complete blood counts (CBCs)", "setting": "[2]; vs IgG1 control", "result": "No significant changes"}, {"measurement": "immunophenotypic examination of BM populations", "setting": "[2]; vs IgG1 control", "result": "no significant changes in any hematopoietic stem and/or progenitor populations"}, {"measurement": "donor chimerism / percent engraftment (CD45.1 vs CD45.2)", "setting": "[3]", "result": "no significant differences; also recorded: No significant changes"}, {"measurement": "HEY1 mRNA", "setting": "[4]", "result": "increases were also observed"}, {"measurement": "DLL4-Fc-mediated NOTCH activation (HES1)", "setting": "[5]", "result": "enhanced"}, {"measurement": "overall survival", "setting": "[6]", "result": "significant longer overall survival"}, {"measurement": "overall survival", "setting": "[6]; listed as anti-EGFL7", "result": "prolonged survival"}, {"measurement": "HES1 protein (western blots) after in vivo treatment", "setting": "[6]; 50 mpk three times per week, vs IgG1 controls", "result": "increased levels of HES1 protein"}]}]}
